How the values were obtained:
hASIC1a-ECD [1] = target: T1, hASIC1a-ECD (Homo sapiens, UniProt P78348); assay: Gel filtration of hASIC1a-ECD and ASC06-Fab complex; type: binding; details: Superdex 200
T1 construct: The ectodomain of hASIC1a (hASIC1a-ECD) with an N-terminal fused IL-2 tag and Flag tag; IL-2 tag (N); made in house; host or cells: HEK293F
T1 sequence (P78348 67-427 limits assumed): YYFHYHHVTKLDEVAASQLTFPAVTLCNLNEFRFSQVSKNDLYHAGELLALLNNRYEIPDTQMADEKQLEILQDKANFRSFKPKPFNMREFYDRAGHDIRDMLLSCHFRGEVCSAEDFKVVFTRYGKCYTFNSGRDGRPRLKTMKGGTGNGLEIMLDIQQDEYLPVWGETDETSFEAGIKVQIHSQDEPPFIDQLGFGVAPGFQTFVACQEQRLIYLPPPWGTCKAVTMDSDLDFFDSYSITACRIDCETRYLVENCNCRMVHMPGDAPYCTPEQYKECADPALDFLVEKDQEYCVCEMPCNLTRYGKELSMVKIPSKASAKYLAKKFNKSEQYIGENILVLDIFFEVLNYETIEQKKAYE
Method: (§1) Negative Stain Electron Microscopy (EM): (1) Sample Preparation and Data Collection. The antigen-binding fragment of ASC06-IgG1 (ASC06-Fab) was prepared by digesting ASC06-IgG1 with papain followed by protein A affinity purification and gel filtration. The ectodomain of hASIC1a (hASIC1a-ECD) with an N-terminal fused IL-2 tag and Flag tag was expressed in HEK293F cells and purified by anti-Flag M2 magnetic beads and gel filtration using PBS buffer, pH 7.4. The ASC06-Fab and hASIC1a-ECD were incubated at a molar ratio of 3:1 in PBS buffer, pH 7.4, overnight at 4° C. to form a tertiary complex. This complex was further isolated by gel filtration. […] The peak fractions containing this complex were collected and subjected to negative staining EM.
To understand the nature of binding of ASC06 to hASIC1a, a complex was formed by mixing hASIC1a-ECD and ASC06-Fab. The complex, hASIC1a-ECD and ASC06-Fab were resolved using gel filtration.

hASIC1a-ECD [2] = target: T1, hASIC1a-ECD; assay: Negative stain electron microscopy of hASIC1a-ECD/ASC06-Fab complex; details: negative staining EM
Method: as §1
The EM samples were prepared by diluting the purified complex of hASIC1a-ECD and ASC06-Fab to 0.01 mg/mL. […]
All micrographs were recorded with a Tecnai G2 Spirit transmission electron microscope (FEI) equipped with an LaB6 cathode operated at 120 kV and a 4,000×4,000 Eagle CCD camera at a calibrated magnification of 67,000 times, resulting in a pixel size of 1.74 Å.
EMI mage Processing and 3D Reconstruction. […] All of the recorded micrographs were first decimated twofold (resulting in a pixel size of 3.48 Å). […]

complex formation with hASIC1a-ECD homotrimer (hASIC1a-ECD [1]): formed a stable complexes
B1: ASC06-Fab: antigen-binding fragment of ASC06-IgG1 prepared by digesting ASC06-IgG1 with papain (antibody, V domains shown)
VH: QVQLQQSGGGLVQPGGSLRLSCAASGFTFSSYAMSWVRQAPGKGLEWVSAISGSGGSTYYADSVKGRFTISRDNSKNTLYLQMNSLRAEDTAVYYCAKDSFYGYSKGDWGQGTLVTVSS
VL: QSALTQPASVSGSPGQSITISCTGTSSDVGAYNYVSWYQQQPGKAPKLMIYGVSNRPSGVSNRFSGSKSGNAASLTISGLQAEDEADYYCSSYTSSSTYVFGTGTKLTVLG
location of epitope (hASIC1a-ECD [2]): located on a surface formed by two hASIC1a-ECD subunits
